The series deals with the molecule itself. The experiment in a line: gel filtration (Superdex 200) of His-caspase 11 after incubation with oxPAPC; self-association. The protocol:
To measure the ability of oxPAPC to oligomerize caspase-11, monomer or oligomer fractions of His-caspase 11 were incubated with oxPAPC for 2 hours on ice, and then analyzed with Superdex 200 (10/300).
In general terms: Size exclusion chromatography separates by hydrodynamic size, large species first.

B1: His-caspase 11 (full length mouse caspase 11 with a TEV cleavable N-terminal 6xHis tag) (enzyme, UniProt P70343 1-373, looked up)
chain: MAENKHPDKPLKVLEQLGKEVLTEYLEKLVQSNVLKLKEEDKQKFNNAERSDKRWVFVDAMKKKHSKVGEMLLQTFFSVDPGSHHGEANLEMEEPEESLNTLKLCSPEEFTRLCREKTQEIYPIKEANGRTRKALIICNTEFKHLSLRYGANFDIIGMKGLLEDLGYDVVVKEELTAEGMESEMKDFAALSEHQTSDSTFLVLMSHGTLHGICGTMHSEKTPDVLQYDTIYQIFNNCHCPGLRDKPKVIIVQACRGGNSGEMWIRESSKPQLCRGVDLPRNMEADAVKLSHVEKDFIAFYSTTPHHLSYRDKTGGSYFITRLISCFRKHACSCHLFDIFLKVQQSFEKASIHSQMPTIDRATLTRYFYLFPGN
notes: Monomer or oligomer fractions from size exclusion chromatography were incubated with oxPAPC and run on Superdex 200; not shown: TEV cleavable N-terminal 6xHis tag from the pFastBac HT A vector
On to B1, for which the binding result is listed as “binds”.

(Values after patent US20250025552A1 (published 2025).)
